Tests used:
[1] = test system: MHP77-3 meganuclease (engineered I-CreI); assay: cell_activity; details: maize embryos
[2] = molecular target: T1, MHP55-2 meganuclease (engineered I-CreI); assay: cell_activity; maize embryos; details: tags: SV40 NLS
T1 chain: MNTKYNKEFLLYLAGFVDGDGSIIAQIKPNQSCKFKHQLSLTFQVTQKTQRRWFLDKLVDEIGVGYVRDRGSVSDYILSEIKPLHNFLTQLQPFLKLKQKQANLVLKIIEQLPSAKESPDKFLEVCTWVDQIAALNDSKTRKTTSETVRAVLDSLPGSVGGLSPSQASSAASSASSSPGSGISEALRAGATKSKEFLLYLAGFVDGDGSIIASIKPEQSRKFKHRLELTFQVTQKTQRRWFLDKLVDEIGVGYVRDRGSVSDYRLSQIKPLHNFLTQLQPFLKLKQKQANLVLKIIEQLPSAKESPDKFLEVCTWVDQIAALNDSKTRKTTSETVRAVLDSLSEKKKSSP
Procedure: (§1) Trait gene cassettes can be introduced at other target sites of the complex trait locus through homologous recombination mediated by engineered meganucleases. Engineered meganucleases were designed to direct double strand breaks a two other MHP target sites, MHP55 (SEQ ID NO: 72) and MHP77 (SEQ ID NO: 74) within the complex trait locus. Target site modification was determined using qPCR. The probe sequence for qPCR screening of the MHP55 target site was […] (SEQ ID NO: 115), the MHPTS55_Forward_MGBprimer sequence was […] (SEQ ID NO: 116), and MHP55_reverse_MGB primer was […] (SEQ ID NO: 117). The probe sequence for qPCR of MHP77 target site was […] (SEQ ID NO: 118), the MHPTS77_Forward_MGB primer sequence was […] (SEQ ID NO: 119), and MHP77_reverse_MGB primer was […] (SEQ ID NO: 120). The trait gene cassettes encoding MHP14, MHP55 and MHP77 were introduced into maize somatic embryos via transformation techniques using bombardment and following bombardment, embryos were incubated on 560P (maintenance medium) for 48 hours […].

[3] = molecular target: T2, MHP14+ meganuclease (engineered I-CreI); assay: cell_activity; maize embryos; details: tags: SV40 NLS
T2 chain: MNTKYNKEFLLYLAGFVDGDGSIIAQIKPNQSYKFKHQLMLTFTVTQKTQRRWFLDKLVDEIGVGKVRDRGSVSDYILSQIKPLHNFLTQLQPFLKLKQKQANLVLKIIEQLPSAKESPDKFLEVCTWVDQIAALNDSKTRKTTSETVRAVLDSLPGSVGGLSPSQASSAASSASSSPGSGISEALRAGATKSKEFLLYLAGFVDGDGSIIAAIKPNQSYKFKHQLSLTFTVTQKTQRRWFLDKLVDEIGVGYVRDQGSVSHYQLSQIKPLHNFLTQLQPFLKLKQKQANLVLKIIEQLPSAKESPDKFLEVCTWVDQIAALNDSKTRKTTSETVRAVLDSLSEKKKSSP
Procedure: as §1

[4] = molecular target: T3, MHP77 meganuclease (engineered I-CreI); assay: cell_activity; maize embryos; details: tags: SV40 NLS
T3 chain: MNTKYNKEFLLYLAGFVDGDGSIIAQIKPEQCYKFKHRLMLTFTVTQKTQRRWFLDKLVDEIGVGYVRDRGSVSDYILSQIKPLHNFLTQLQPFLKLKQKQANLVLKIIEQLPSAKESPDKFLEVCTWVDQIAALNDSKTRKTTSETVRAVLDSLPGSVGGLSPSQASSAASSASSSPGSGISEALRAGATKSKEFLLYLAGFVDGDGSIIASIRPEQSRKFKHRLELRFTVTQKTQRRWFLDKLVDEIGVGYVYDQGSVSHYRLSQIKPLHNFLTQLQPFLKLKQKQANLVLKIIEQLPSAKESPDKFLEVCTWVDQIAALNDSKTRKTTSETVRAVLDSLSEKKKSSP
Procedure: as §1

## GGGCGGTATGTATGTCATACTA (double strand) [MHP77 target]
[1]
  activity (% target site mutation): 11

B1: MHP55 target (dsDNA)
DNA 1: CCAACCGTCGTGAGACCTGCCC
DNA 2: GGGCAGGTCTCACGACGGTTGG
[2]
  activity: 5 % target site mutation

B2: MHP14 target (dsDNA)
DNA 1: CAAACAGATTCACGTCAGATTT
DNA 2: AAATCTGACGTGAATCTGTTTG
[3]
  activity: 40 % target site mutation

B3: MHP77 target (dsDNA)
DNA 1: GGGCGGTATGTATGTCATACTA
DNA 2: TAGTATGACATACATACCGCCC
[4]
  activity: 1 % target site mutation
